{"source": "FireProtDB (doi:10.1074/jbc.m707838200)", "settings": "Staphylococcus aureus; pH 7; 25 °C; Thermal; CD; Hepes-NaOH 20 mM; NaCl 170 mM; reversible: Yes; whole UniProt chain shown", "note": "Values joined by “and” are separate entries in the source; they are usually repeats but may differ in a detail not shown here. Equal entries are not always repeated."}
{"protein": "wild type, Q9EYL5 (protein) MTKKLLTLFIVSMLILTACGKKESATTSSKNGKPLVVVYGDYKCPYCKELDEKVMPKLRKNYIDNHKVEYQFVNLAFLGKDSIVGSRASHAVLMYAPKSFLDFQKQLFAAQQDENKEWLTKELLDKHIKQLHLDKETENKIIKDYKTKDSKSWKAAEKDKKIAKDNHIKTTPTAFINGEKVEDPYDYESYEKLLKDKIK", "values": [{"measurement": "unfolding free energy", "result": "7.19 kcal/mol and 7.14 kcal/mol"}]}
